Experimental data reported in patent US20190338038A1 (CELLERANT THERAPEUTICS, published 2019).

T1: human interleukin 1 receptor accessory protein, membrane-bound form on cells (human, UniProt Q9NPH3 21-570)
T1 sequence: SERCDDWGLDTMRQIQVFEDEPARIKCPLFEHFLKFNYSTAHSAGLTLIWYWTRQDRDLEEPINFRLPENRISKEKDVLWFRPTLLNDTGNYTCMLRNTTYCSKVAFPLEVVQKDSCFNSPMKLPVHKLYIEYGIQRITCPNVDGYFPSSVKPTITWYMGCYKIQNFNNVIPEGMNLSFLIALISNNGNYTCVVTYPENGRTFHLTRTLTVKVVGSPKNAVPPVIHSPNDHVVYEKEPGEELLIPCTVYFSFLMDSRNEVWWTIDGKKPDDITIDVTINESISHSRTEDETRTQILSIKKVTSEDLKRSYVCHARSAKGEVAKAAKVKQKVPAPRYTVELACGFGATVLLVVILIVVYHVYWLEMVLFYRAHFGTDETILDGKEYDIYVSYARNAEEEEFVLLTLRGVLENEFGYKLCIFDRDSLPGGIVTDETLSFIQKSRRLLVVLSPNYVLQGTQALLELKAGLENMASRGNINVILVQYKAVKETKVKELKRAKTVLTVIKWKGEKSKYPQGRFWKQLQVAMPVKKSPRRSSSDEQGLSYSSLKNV

T2: recombinant mouse IL1-RAP (mouse, UniProt Q61730 21-359, limits assumed)
T2 sequence (looked up): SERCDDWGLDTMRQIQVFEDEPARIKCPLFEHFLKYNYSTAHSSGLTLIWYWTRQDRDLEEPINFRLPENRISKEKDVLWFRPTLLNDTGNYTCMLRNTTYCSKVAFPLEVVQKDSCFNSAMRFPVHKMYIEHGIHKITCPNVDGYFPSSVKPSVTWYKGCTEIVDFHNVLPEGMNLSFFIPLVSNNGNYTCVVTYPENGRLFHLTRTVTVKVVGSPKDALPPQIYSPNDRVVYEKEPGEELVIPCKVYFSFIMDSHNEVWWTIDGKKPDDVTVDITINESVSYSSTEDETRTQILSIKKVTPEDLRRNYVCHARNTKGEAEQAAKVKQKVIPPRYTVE


Assays:
[1] = molecular target: T1, human interleukin 1 receptor accessory …; assay: cell-based or functional assay
[2] = molecular target: T2, recombinant mouse IL1-RAP; assay: FACS (GeoMean), bar series mIL1RAP
[3] = molecular target: human interleukin 1 receptor accessory protein, membrane-bound form on cells (human) (UniProt Q9NPH3); assay: FACS on EOL-1 cells, FITC; antibody concentration not given

Row | Binder | % Inhibition at 10 ug/mL of IL-1β-induced NF-κB signaling, HEK-Blue IL-1β cells [1] [%] | IC50 of inhibition of IL-1β-induced NF-κB signaling, HEK-Blue IL-1β cells [1] [µg/mL] | binding result [2] | MFI [3]
1 | anti-IL1-RAP antibody clone 42.1D3 (antibody, V domains shown, Mouse monoclonal antibody) VH: QIQLVQSGPELKKPGETVNISCKASGYTFTDFSMHWVKQAPGKGLQWMGWINTETGEPTYADDFEARFAFSLATSANTAYLKINNLKNEDTATYFCARFFLHFDYWGQGTTLTVSS VL: DIVLTQSPATLSVTPGDSVSLSCRASQSINNDLHWYQQKSHESPRLLIKYASQSISGIPSRFSGSGSGTDFTLRINSVETEDFRMYFCQQSNNWPLTFGAGTKLEVK | 59 | 7.99 | no binding (tested: not given) | –
2 | anti-IL1-RAP antibody clone 50.3G7 (antibody, V domains shown, Mouse monoclonal antibody) VH: QIQLVQSGPELKKPGETVKISCKASGYTFTNYGMHWVKQSPGEGLKWMGWINTYTGEPTYADDFKGRFGFSLETSASSAYLQINDLKNEDMATYFCARYYGNFDYWGQGTTLTVSS VL: DIVLTQSPATLSVTPGDSVSLSCRASQSISNNLHWYQQKSHESPRLLIKYASQSISGIPSRFSGSGSGTDFTLSINSVETEDFGVYFCQQSHNWPHTFGGGTKLEIKR | 48 | 12.6 | no binding (tested: not given) | –
3 | anti-IL1-RAP antibody clone 54.8H8 (antibody, V domains shown, Mouse monoclonal antibody) VH: EVQLVESGGGLVKPGGSLKLSCAASGFSFSSYGMSWVRQSPEKRLEWVAEITSGGSHTYYPDTVTGRFTISRDNAKNTLYLEMSSLRSEDTAMYYCSRSYGNYVMDYWGQGTSVTVSS VL: QIVLTQSPAIMSASPGEKVTMTCSASSSVIYIYWFQQKPGSSPRLLIYDTSNLASGVPLRFSGSGSGTSYSLTISRMETEDVSTYYCQQWNSYPPTFGGGTKLEIK | 50.8 | 2.05 | no binding (tested: not given) | –
4 | 42.3G6 (antibody, V domains shown, also called anti-IL1-RAP antibody clone 42.3G6) VH: QIQLVQSGPELKKPGETVKISCKASGYTFTDYSMHWVKQAPEKGLKWMGWINTETGEPTYADDFKGRFAFSLETSASTAYLQINNLKNEDTATYFCARGSFPWFTYWGQGTLVTVSA VL: DIVMTQAAFSNPVTLGTSASISCRSSKSLLHSNGITYLYWYLQKPGQSPQLLIYQMSNLASGVPDRFSSSGSGTDFTLRISRVEAEDVGVYYCAQNLELPFTFGSGTKLEIK | – | – | no binding (tested: not given) | –
5 | H54.9D7 HC1 / H54.9D7 LC1 (antibody, V domains shown) VH: QVQLVQSGAEVKKPGASVKVSCKASGYIFITYWMNWVRQAPGQGLEWMGQIFPASGTTYYAQKFQGRVTMTRDTSTSTVYMELSSLRSEDTAVYYCARTDFYRYDGGYALDYWGQGTLVTVSS VL: DIQMTQSPSSLSASVGDRVTITCRASQSVSTSGYSSMHWYQQKPGKAPKLLIYYASDLESGVPSRFSGSGSGTDFTLTISSLQPEDFATYYCHHSWGIPMYTFGQGTKLEIKR | – | – | – | 4.9
6 | h54.9D7 HC1 / h54.9D7 LC2 (antibody, V domains shown) VH: QVQLVQSGAEVKKPGASVKVSCKASGYIFITYWMNWVRQAPGQGLEWMGQIFPASGTTYYAQKFQGRVTMTRDTSTSTVYMELSSLRSEDTAVYYCARTDFYRYDGGYALDYWGQGTLVTVSS VL: DIQLTQSPSSLSASVGDRATITCRASQSVSTSGYSSMHWYQQKPGKAPKLLIYYASDLESGVPSRFSGSGSGTDFTLTISSVQPEDFATYYCHHSWGIPMYTFGQGTKLEIKR | – | – | – | 5.14
7 | h54.9D7 HC3 / h54.9D7 LC2 (antibody, V domains shown) VH: QVQLVQSGAEVKKPGASVKLSCKASGYIFITYWMNWVRQAPGQGLEWVGQIFPASGTTYYAQKFQGRATLTVDTSTSTAYMELSSLRSEDTAVYYCARTDFYRYDGGYALDYWGQGTLLTVSS VL: DIQLTQSPSSLSASVGDRATITCRASQSVSTSGYSSMHWYQQKPGKAPKLLIYYASDLESGVPSRFSGSGSGTDFTLTISSVQPEDFATYYCHHSWGIPMYTFGQGTKLEIKR | – | – | – | 5.49
8 | H54.9D7 HC3 / H54.9D7 LC1 (antibody, V domains shown) VH: QVQLVQSGAEVKKPGASVKLSCKASGYIFITYWMNWVRQAPGQGLEWVGQIFPASGTTYYAQKFQGRATLTVDTSTSTAYMELSSLRSEDTAVYYCARTDFYRYDGGYALDYWGQGTLLTVSS VL: DIQMTQSPSSLSASVGDRVTITCRASQSVSTSGYSSMHWYQQKPGKAPKLLIYYASDLESGVPSRFSGSGSGTDFTLTISSLQPEDFATYYCHHSWGIPMYTFGQGTKLEIKR | – | – | – | 4.86
9 | h54.9D7 HC2 / h54.9D7 LC1 (antibody, V domains shown) VH: QVQLVQSGAEVKKPGASVKVSCKASGYIFITYWMNWVRQAPGQGLEWVGQIFPASGTTYYAQKFQGRVTMTVDTSTSTVYMELSSLRSEDTAVYYCARTDFYRYDGGYALDYWGQGTLVTVSS VL: DIQMTQSPSSLSASVGDRVTITCRASQSVSTSGYSSMHWYQQKPGKAPKLLIYYASDLESGVPSRFSGSGSGTDFTLTISSLQPEDFATYYCHHSWGIPMYTFGQGTKLEIKR | – | – | – | 5.25
10 | h54.9D7 HC2 / h54.9D7 LC2 (antibody, V domains shown) VH: QVQLVQSGAEVKKPGASVKVSCKASGYIFITYWMNWVRQAPGQGLEWVGQIFPASGTTYYAQKFQGRVTMTVDTSTSTVYMELSSLRSEDTAVYYCARTDFYRYDGGYALDYWGQGTLVTVSS VL: DIQLTQSPSSLSASVGDRATITCRASQSVSTSGYSSMHWYQQKPGKAPKLLIYYASDLESGVPSRFSGSGSGTDFTLTISSVQPEDFATYYCHHSWGIPMYTFGQGTKLEIKR | – | – | – | 5.69
11 | Chi54.9D7 HC#1 / h54.9D7 LC1 (antibody, V domains shown) VH: HVQLQQSGPELVRPGASVKLSCKASGYIFITYWMNWVKQRPGQGLEWVGQIFPASGTTYYNELFEGKATLTVDTSSNTAYMHLTSLTSEDSAVYYCARTDFYRYDGGYALDYWGQGTSLTVSS VL: DIQMTQSPSSLSASVGDRVTITCRASQSVSTSGYSSMHWYQQKPGKAPKLLIYYASDLESGVPSRFSGSGSGTDFTLTISSLQPEDFATYYCHHSWGIPMYTFGQGTKLEIKR | – | – | – | 7.96
12 | 46.8G1 (antibody, V domains shown, also called anti-IL1-RAP antibody clone 46.8G1) VH: QVQLQQSGPELVKPGASVKISCTASGYAFSTSWMNWVKQRPGKGLEWIGRIYPGDGDSNYNGKFKGKATLTADKSSSTAYMQLSSLTSEDSAVYFCARRDYYGFFDVWGAGTTVTVSS VL: DIQMTQSPASLSVSVGETVTITCRASENIYSNLVWYQQKQGKSPQLLVYAATNLADGVPSRFSGSGSDTQYSLKINSLQSEDFGSYYCLHFWGPPYMYTFGGGTNLEMKR | – | – | no binding (tested: not given) | –
13 | anti-IL1-RAP antibody clone 54.15B5 (antibody, V domains shown, Mouse monoclonal antibody) VH: KWSWWSLGGGLAKPGGSLKLSCTASGFTFTSYVMSWVRQSPEKRLEWVAEISRGGSHTYYSDTVTGRFTISRDNANNALYLEMSSVRSADTAMYFCTRAYGNSEMDFWGQGTSVTVSS VL: QIVLTQSPAIMSASPGEKVTMTCSASSSISYIHWYRQKPGTSPKRWIYDTSNLASGVPARFSGSGSGTSYSLTIINMEAEDAATYYCHQRTYYPLTFGGGTRLELK | 58.1 | 0.29 | no binding (tested: not given) | –
14 | anti-IL1-RAP antibody clone 46.1D2 (antibody, V domains shown, Mouse monoclonal antibody) VH: QVQLQQSGPELVKPGASVKISCKASGYGFSSSWMNWVKQRPGKGLEWIGRIYPGDGNTNYYGEFKGKATLTADKSSSTAYMQLNSLTSEDSAVYFCARNDGYPAWFTYWGQGTLVTVSA VL: DIQMTQTTSSLSASLGDRVTISCSASQGISNYLNWYQQKPDGSVKLLIYYTSTLHSGVPSRFSGSGSGTDYSLTISNLEPEDIATYYCQQYSYLPWTFGGGTKLEIK | 69.2 | 0.13 | no binding (tested: not given) | –
15 | anti-IL1-RAP antibody clone 54.9E9 (antibody, V domains shown, Mouse monoclonal antibody) VH: QIQLVQSGPELKKPGETVKISCKASSYTFTDYSMHWVKQAPGKGLKWMGWINTETGEPRYADDFKGRFAFSLETSASTAYLQINNLKNEDTATYFCARFLLHFDYWGQGTILTVSS VL: QIVLTQSPAIMSASPGEKVTMTCSASSSVSYMHWYQQKTGTSPKRLIYDTSKLASGVPARFSGSGSGTSYSLTISSMEAEDAATYYCHQRSYYPLTFGAGAKLELK | 69.1 | 1.3 | no binding (tested: not given) | –
16 | anti-IL1-RAP antibody clone 50.6C12 (antibody, V domains shown, Mouse monoclonal antibody) VH: EVQLQQSGPELVKPGDSVKMSCKASGYTFTDYYMDWVKQSHGKSLEWIGYIYPHNGGTTYNQKFKGKATLTVDKSSSTAYMELHSLTSEDSAVYYCARSPFNYKDPMDWWGQGTSVTVSS VL: DIQMTQSPASLSASVGETVTITCRASGNIHNYLAWYQQKQGKSPHLLVYNAETLADGVPSRFSGSGSGTQYSLKINSLQPEDFGTYYCQHFWSTPWTFGGGTKLEIK | 69 | 0.41 | no binding (tested: not given) | –
